Target: Smy2p fused to the LexA-DNA binding domain (S. cerevisiae)
Experiment: two-hybrid

Sequence of Smy2p fused to the LexA-DNA binding domain (S. cerevisiae) (P32909 whole entry, the tested form may be a part): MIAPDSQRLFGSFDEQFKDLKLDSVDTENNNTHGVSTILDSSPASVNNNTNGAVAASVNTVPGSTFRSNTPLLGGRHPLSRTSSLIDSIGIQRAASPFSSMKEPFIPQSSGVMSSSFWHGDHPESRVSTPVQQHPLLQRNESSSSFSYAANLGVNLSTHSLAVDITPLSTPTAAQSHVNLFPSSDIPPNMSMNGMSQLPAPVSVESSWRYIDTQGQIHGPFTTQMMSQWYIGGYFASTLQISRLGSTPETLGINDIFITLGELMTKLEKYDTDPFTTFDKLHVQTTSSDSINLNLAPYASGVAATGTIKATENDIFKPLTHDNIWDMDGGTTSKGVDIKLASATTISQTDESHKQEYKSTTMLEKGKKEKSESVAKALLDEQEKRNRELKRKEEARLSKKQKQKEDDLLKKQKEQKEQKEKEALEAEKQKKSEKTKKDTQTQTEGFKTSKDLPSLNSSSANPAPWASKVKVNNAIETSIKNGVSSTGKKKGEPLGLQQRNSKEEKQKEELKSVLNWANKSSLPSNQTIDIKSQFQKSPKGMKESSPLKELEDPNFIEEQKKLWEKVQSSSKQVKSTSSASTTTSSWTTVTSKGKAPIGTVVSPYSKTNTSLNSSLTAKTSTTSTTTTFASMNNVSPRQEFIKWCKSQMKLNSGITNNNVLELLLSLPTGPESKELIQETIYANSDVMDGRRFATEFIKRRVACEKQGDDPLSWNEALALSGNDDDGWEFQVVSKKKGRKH

- β-galactosidase activity: 26 units
B1: Sec23p connected to the B42 acidic activation domain (natural protein)
chain: MDFETNEDINGVRFTWNVFPSTRSDANSNVVPVGCLYTPLKEYDELNVAPYNPVVCSGPHCKSILNPYCVIDPRNSSWSCPICNSRNHLPPQYTNLSQENMPLELQSTTIEYITNKPVTVPPIFFFVVDLTSETENLDSLKESIITSLSLLPPNALIGLITYGNVVQLHDLSSETIDRCNVFRGDREYQLEALTEMLTGQKPTGPGGAASHLPNAMNKVTPFSLNRFFLPLEQVEFKLNQLLENLSPDQWSVPAGHRPLRATGSALNIASLLLQGCYKNIPARIILFASGPGTVAPGLIVNSELKDPLRSHHDIDSDHAQHYKKACKFYNQIAQRVAANGHTVDIFAGCYDQIGMSEMKQLTDSTGGVLLLTDAFSTAIFKQSYLRLFAKDEEGYLKMAFNGNMAVKTSKDLKVQGLIGHASAVKKTDANNISESEIGIGATSTWKMASLSPYHSYAIFFEIANTAANSNPMMSAPGSADRPHLAYTQFITTYQHSSGTNRIRVTTVANQLLPFGTPAIAASFDQEAAAVLMARIAVHKAETDDGADVIRWLDRTLIKLCQKYADYNKDDPQSFRLAPNFSLYPQFTYYLRRSQFLSVFNNSPDETAFYRHIFTREDTTNSLIMIQPTLTSFSMEDDPQPVLLDSISVKPNTILLLDTFFFILIYHGEQIAQWRKAGYQDDPQYADFKALLEEPKLEAAELLVDRFPLPRFIDTEAGGSQARFLLSKLNPSDNYQDMARGGSTIVLTDDVSLQNFMTHLQQVAVSGQA
